The results in this text go back to article PMC4982076, “lin28 proteins promote expression of 17∼92 family miRNAs during amphibian development”.

Series [1] has as its target T1, Xrt-lin28a (Xenopus tropicalis, UniProt Q5EB47 34-177).
T1 sequence: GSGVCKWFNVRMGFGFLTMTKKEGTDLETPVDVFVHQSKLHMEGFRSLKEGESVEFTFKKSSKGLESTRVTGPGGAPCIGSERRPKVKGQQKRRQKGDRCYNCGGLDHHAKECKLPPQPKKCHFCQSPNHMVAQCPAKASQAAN
The series can be described thus: EMSA. The settings on record: Bmax 1.017; n=3; 60 mM KCl, 10 mM HEPES pH 7.6, 3 mM MgCl2, 5% glycerol, 1 mM DTT, 5 ug/ul heparin, 150 ng yeast total RNA; 30 min room temperature; 10% native PAGE. In general terms: Mobility shift assays separate free from complexed probe on a gel.

The target in series [2] is T1, Xrt-lin28a. The experiment in a line: EMSA; Bmax 0.962; n=3; 60 mM KCl, 10 mM HEPES pH 7.6, 3 mM MgCl2, 5% glycerol, 1 mM DTT, 5 ug/ul heparin, 150 ng yeast total RNA; 30 min room temperature; 10% native PAGE. The note with it: protein: recombinant.

Regarding L-let-7g, in series [1], the Kd – broadly, the equilibrium constant for the complex coming apart – worked out at 314 nM.

For UGCAAUUUUAUUUAGUUUGGUAGGAGAAAAAUUGC (structured_RNA) [L-mir-363], the Kd in series [2] was 448 nM.
